For two substances, stoichiometry N and Kd results are on record in article doi:10.1101/2021.02.27.433207.

Series [1] addresses Vibrio cholerae chromosome 2 ParA2 (Vibrio cholerae). As to the kind of experiment: SEC-MALS. Background: In gel filtration, larger molecules generally elute earlier.
A further series relates to ParA2 (Vibrio cholerae). Kind of series: EMSA.

Usually stoichiometry N stands for the number of molecules, sites or subunits per partner or assembly. With “Vibrio cholerae chromosome 2 ParA2 (enzyme)”, in series [1], the stoichiometry N amounted to 2.
A word on the Kd: it is the constant that tells how readily two partners part at equilibrium. Lower therefore signals a tighter complex. Consider Cy3-62-bp DNA, for which the Kd with ParA2 (Vibrio cholerae) worked out at 1000 nM.
